Results on five molecules are retold here after US20160115202A1 (OHIO STATE INNOVATION FOUNDATION, published 2016).

In assay [1] the target is GST-tagged K-Ras G12V protein (Example 4) (UniProt P01116). Put plainly: FA, binding in solution.
For assay [2] the target is unchanged. The experiment in a line: FA, binding in solution. The source holds these as a separate data set.
The target in assay [3] is T1, ybbR-tagged extracellular domain of human TNFα (aa 77-233) (human, UniProt P01375 77-233, biotin or Texas Red attached at the ybbR tag by Sfp where labeled TNFα was used).
T1 construct: range 77-233; Expressed in E. coli from pET-22b(+)-ybbR; also called TNF-alpha; tumor necrosis factor-alpha
The experiment in a line: competition ELISA: 0.5 nM HRP-TNFR1 on immobilized biotinylated TNFα.
Experimental: A Nunc 96F Maxisorp plate was coated overnight with 100 μL of 5 mg/mL Neutravidin (in 50 mM Na₂CO₃, pH 9.0) at 4° C. The solution was removed and each well was washed with 100 μL of the blocking buffer containing 3% BSA. […] The wells were quickly washed twice with a washing buffer (0.01% Tween 20 in PBS buffer). […] After incubation at 4° C. for 1.5 h, the plate was washed twice with the washing buffer and incubated with 100 μL of 3,3′,5,5′-tetramethylbenzidine (Sigma) for 30 min. The reaction was quenched by the addition of 100 μL of 1 M phosphoric acid. The absorbance at 450 nm was measured and plotted against the peptide concentration and the IC₅₀ value was obtained by curve fitting.

The target of assay [4] is T1, ybbR-tagged extracellular domain of …. Put plainly: FA competition; competitor FITC-labeled Necrostatin C2 (100 nM), TNFα 1600 nM.
Assay [5] shares this target. The experiment in a line: FA competition; competitor FITC-labeled Necrostatin C1 (100 nM), TNFα 1600 nM.
For assay [6] the target is unchanged. Put plainly: FA, resynthesized FITC-labeled peptide titrated with TNFα.

Read-outs that look alike come from different tables or passages of the source. Bridges are numbered along the chain shown (N, C = ends). Primed or numbered codes have the meaning given here. Where no end group is shown, it is not given here. [ ]: non-standard residue; d: D form. The star is where a group is joined. trimesoyl = trimesic acid scaffold joined by three amide bonds (bicycle); trimesoyl″ = trimesic acid scaffold joined by three amide bonds; FITC = O=C1OC2(c3ccc(O)cc3Oc3cc(O)ccc32)c2ccc(NC(=S)*)cc21; Phg = N[C@H](C(=O)O)c1ccccc1; Nle = CCCC[C@H](N)C(=O)O; Pra = C#CC[C@H](N)C(=O)O; dNal = D-naphthylalanine; Dap = NC[C@H](N)C(=O)O

T1 sequence (P01375 other isoform, or with tags, fused parts or gaps limits assumed): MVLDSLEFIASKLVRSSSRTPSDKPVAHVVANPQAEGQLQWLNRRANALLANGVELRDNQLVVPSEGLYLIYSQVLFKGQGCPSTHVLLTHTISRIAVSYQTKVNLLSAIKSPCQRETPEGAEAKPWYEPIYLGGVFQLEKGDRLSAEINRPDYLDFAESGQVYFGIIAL

The Kd is a measure of binding affinity in units of concentration. Low readings indicate tighter binding, high ones weaker binding. For the molecule “peptide 13, bicyclo(Ala-Orn-Phg-Arg-d-Asn-Pra-Ile-d-Phe-K-FNalR4-Dap)-K”, the Kd in assay [1] worked out at 6000 nM. In other words, the single-digit micromolar range.

B1: peptide 12, bicyclo(d-Ala-Gln-Phg-Arg-d-Asn-Pra-Ile-Asp-K-FNalR4-Dap)-K (peptide)
peptide: [dA]Q[Phg]R[dN][Pra]IDKF[dNal]RRRR[Dap]K
modifications: linker N-1-9-16 via trimesoyl″; not fully specified (residue 6); also: dye label on C-terminal Lys not given here
B1 yielded a Kd in assay [2] of 2000 nM.

B2: Necrostatin C1 (label not stated) (peptide)
peptide: [Phg]Y[dA]KY[dF]G[dK]H[Dap]
modifications: linker (positions not given here) via trimesic acid (trimesoyl); not fully specified (bridges)
notes: As used in the TNFα-TNFR1 ELISA and the MTT assays; also called Nercostatin C1
By IC50 is commonly meant the midpoint of a concentration-inhibition curve. A higher IC50 goes with a need for much substance. As for B2, the 50% inhibitory concentration (IC50) in assay [3] is 3100 nM.

B3: Necrostatin C2 (unlabeled) (peptide)
peptide: A[dF]W[dT]QK[Nle][dL]AH[Dap]
modifications: linker (positions not given here) via trimesic acid (trimesoyl); not fully specified (bridges)
notes: also called unlabeled Necrostatin C2
For the molecule B3, the IC50 in assay [4] was roughly 2000 nM; in assay [5], roughly 4000 nM.
In the case of [Phg]Y[dA]KY[dF]G[dK]H[Dap]K(FITC) (linker (positions not given here) via trimesoyl; not fully specified (bridges)) [FITC-labeled Necrostatin C1 (resynthesized)], in assay [6], binding was put at a Kd of 450 nM. In other words, the sub-micromolar range.
